Experimental data: patent publication US20150087577A1 (POLYPHOR, published 2015)
Bridges are numbered along the chain shown (N, C = ends). [ ]: non-standard residue; d: D form. 2Nal = N[C@@H](Cc1ccc2ccccc2c1)C(=O)O; Cit = NC(=O)NCCC[C@H](N)C(=O)O

Target: human CXCR4 (human, UniProt P61073 1-352)
Test: cell-based or functional assay

human CXCR4, sequence (P61073 whole entry): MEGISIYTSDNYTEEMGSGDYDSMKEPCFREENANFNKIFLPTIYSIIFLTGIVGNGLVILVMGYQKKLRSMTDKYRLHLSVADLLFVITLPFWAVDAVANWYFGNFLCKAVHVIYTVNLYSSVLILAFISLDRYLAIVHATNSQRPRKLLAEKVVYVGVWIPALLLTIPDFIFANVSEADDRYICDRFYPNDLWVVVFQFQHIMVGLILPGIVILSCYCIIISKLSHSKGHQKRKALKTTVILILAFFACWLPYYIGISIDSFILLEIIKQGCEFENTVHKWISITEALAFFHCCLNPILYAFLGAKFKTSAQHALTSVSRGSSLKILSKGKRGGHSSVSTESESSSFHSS

| Binder | IC50 (nM) Ca2+ assay (method 2) [nM] | IC50 (nM) Ca2+ assay (method 1) [nM] |
| --- | --- | --- |
| cyclo(YR[Cit]FRG[dP]RR[2Nal]FY[Cit]K[dP]P) (SMILES N=C(N)NCCC[C@@H]1NC(=O)[C@H](Cc2ccccc2)NC(=O)[C@H](CCCNC(N)=O)NC(=O)[C@H](CCCNC(=N)N)NC(=O)[C@H](Cc2ccc(O)cc2)NC(=O)[C@@H]2CCCN2C(=O)[C@H]2CCCN2C(=O)[C@H](CCCCN)NC(=O)[C@H](CCCNC(N)=O)NC(=O)[C@H](Cc2ccc(O)cc2)NC(=O)[C@H](Cc2ccccc2)NC(=O)[C@H](Cc2ccc3ccccc3c2)NC(=O)[C@H](CCCNC(=N)N)NC(=O)[C@H](CCCNC(=N)N)NC(=O)[C@H]2CCCN2C(=O)CNC1=O) [Example 38] |  | 720 |
| cyclo(YR[Cit]CRVGRR[2Nal]CY[Cit]K[dP]P) (disulfide 4-11; SMILES CC(C)[C@@H]1NC(=O)[C@H](CCCNC(=N)N)NC(=O)[C@@H]2CSSC[C@H](NC(=O)[C@H](Cc3ccc4ccccc4c3)NC(=O)[C@H](CCCNC(=N)N)NC(=O)[C@H](CCCNC(=N)N)NC(=O)CNC1=O)C(=O)N[C@@H](Cc1ccc(O)cc1)C(=O)N[C@@H](CCCNC(N)=O)C(=O)N[C@@H](CCCCN)C(=O)N1CCC[C@@H]1C(=O)N1CCC[C@H]1C(=O)N[C@@H](Cc1ccc(O)cc1)C(=O)N[C@@H](CCCNC(=N)N)C(=O)N[C@@H](CCCNC(N)=O)C(=O)N2) [Example 53] |  | 57.8 |
| cyclo(YR[Cit]VR[dR]R[2Nal]VY[Cit]K[dP]P) (SMILES CC(C)[C@@H]1NC(=O)[C@H](Cc2ccc3ccccc3c2)NC(=O)[C@H](CCCNC(=N)N)NC(=O)[C@@H](CCCNC(=N)N)NC(=O)[C@H](CCCNC(=N)N)NC(=O)[C@H](C(C)C)NC(=O)[C@H](CCCNC(N)=O)NC(=O)[C@H](CCCNC(=N)N)NC(=O)[C@H](Cc2ccc(O)cc2)NC(=O)[C@@H]2CCCN2C(=O)[C@H]2CCCN2C(=O)[C@H](CCCCN)NC(=O)[C@H](CCCNC(N)=O)NC(=O)[C@H](Cc2ccc(O)cc2)NC1=O) [Example 2] |  | 2830 |

Second part, the binder after the results:

| IC50 (nM) Ca2+ assay (method 2) [nM] | IC50 (nM) Ca2+ assay (method 1) [nM] | Binder |
| --- | --- | --- |
| 6.3 |  | cyclo(YR[Cit]CRG[dP]WR[2Nal]CYQK[dP]P) (disulfide 4-11; SMILES N=C(N)NCCC[C@@H]1NC(=O)[C@@H]2CSSC[C@H](NC(=O)[C@H](Cc3ccc4ccccc4c3)NC(=O)[C@H](CCCNC(=N)N)NC(=O)[C@H](Cc3c[nH]c4ccccc34)NC(=O)[C@H]3CCCN3C(=O)CNC1=O)C(=O)N[C@@H](Cc1ccc(O)cc1)C(=O)N[C@@H](CCC(N)=O)C(=O)N[C@@H](CCCCN)C(=O)N1CCC[C@@H]1C(=O)N1CCC[C@H]1C(=O)N[C@@H](Cc1ccc(O)cc1)C(=O)N[C@@H](CCCNC(=N)N)C(=O)N[C@@H](CCCNC(N)=O)C(=O)N2) [Example 55] |
| 6.9 |  | cyclo(YR[Cit]CRG[dP]YR[2Nal]CYQK[dP]P) (disulfide 4-11; SMILES N=C(N)NCCC[C@@H]1NC(=O)[C@@H]2CSSC[C@H](NC(=O)[C@H](Cc3ccc4ccccc4c3)NC(=O)[C@H](CCCNC(=N)N)NC(=O)[C@H](Cc3ccc(O)cc3)NC(=O)[C@H]3CCCN3C(=O)CNC1=O)C(=O)N[C@@H](Cc1ccc(O)cc1)C(=O)N[C@@H](CCC(N)=O)C(=O)N[C@@H](CCCCN)C(=O)N1CCC[C@@H]1C(=O)N1CCC[C@H]1C(=O)N[C@@H](Cc1ccc(O)cc1)C(=O)N[C@@H](CCCNC(=N)N)C(=O)N[C@@H](CCCNC(N)=O)C(=O)N2) [Example 54] |
